Results: the supplement of paper PMC5998384

What was measured:
[1] = test system: HeLa Kyoto; experiment: solubility in G1/S (NP-40 vs SDS abundance) (log2 ratio); higher = more soluble; details: cell cycle stage: G1/S
[2] = test system: HeLa Kyoto; experiment: melting temperature (median over replicates), in situ; higher = more thermally stable
[3] = test system: HeLa Kyoto; experiment: solubility change mitosis vs G1/S (difference of NP-40 vs SDS log2 ratios) (log2 ratio difference); higher = more soluble in mitosis
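Throughout, for melting temperature (median over replicates), in situ: HeLa Kyoto cells synchronized by double thymidine or nocodazole block, proteins quantified by TMT10plex mass spectrometry, three independent biological replicates.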
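Throughout, for solubility change mitosis vs G1/S (difference of NP-40 vs SDS log2 ratios): synchronized HeLa Kyoto cells (double thymidine block for G1/S, nocodazole release for mitosis), protein amounts in NP-40 versus SDS lysates quantified by mass spectrometry, three biological replicates.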
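Throughout, for solubility in G1/S (NP-40 vs SDS abundance): HeLa Kyoto cells arrested at G1/S by double thymidine block, proteins quantified by TMT10plex mass spectrometry in mild NP-40 versus SDS extracts, three biological replicates.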

Sequence | solubility in G1/S (log2) [1] | melting temperature ([2]; cell cycle stage: G1/S) [°C] | solubility change mitosis (log2) [3] | melting temperature ([2]; cell cycle stage: mitosis) [°C]
MAASRYRRFLKLCEEWPVDETKRGRDLGAYLRQRVAQAFREGENTQVAEPEACDQMYESLARLHSNYYKHKYPRPRDTSFSGLSLEEYKLILSTDTLEELKEIDKGMWKKLQEKFAPKGPEEDHKA [UQCC2] | 0.0537 | 45.6 | 0.507 | –
MAATMKKAAAEDVNVTFEDQQKINKFARNTSRITELKEEIEVKKKQLQNLEDACDDIMLADDDCLMIPYQIGDVFISHSQEETQEMLEEAKKNLQEEIDALESRVESIQRVLADLKVQLYAKFGSNINLEADES [PFDN4] | -0.219 | 55.5 | 0.523 | 53.5
MAAVFDLDLETEEGSEGEGEPELSPADACPLAELRAAGLEPVGHYEEVELTETSVNVGPERIGPHCFELLRVLGKGGYGKVFQVRKVQGTNLGKIYAMKVLRKAKIVRNAKDTAHTRAERNILESVKHPFIVELAYAFQTGGKLYLILECLSGGELFTHLEREGIFLEDTACFYLAEITLALGHLHSQGIIYRDLKPENIMLSSQGHIKLTDFGLCKESIHEGAVTHTFCGTIEYMAPEILVRSGHNRAVDWWSLGALMYDMLTGSPPFTAENRKKTMDKIIRGKLALPPYLTPDARDLVKKFLKRNPSQRIGGGPGDAADVQRHPFFRHMNWDDLLAWRVDPPFRPCLQSEEDVSQFDTRFTRQTPVDSPDDTALSESANQAFLGFTYVAPSVLDSIKEGFSFQPKLRSPRRLNSSPRAPVSPLKFSPFEGFRPSPSLPEPTELPLPPLLPPPPPSTTAPLPIRPPSGTKKSKRGRGRPGR [RPS6KB2] | -0.0277 | 51.3 | 0.0325 | 50.9
MAENHCELLSPARGGIGAGLGGGLCRRCSAGLGALAQRPGSVSKWVRLNVGGTYFLTTRQTLCRDPKSFLYRLCQADPDLDSDKDETGAYLIDRDPTYFGPVLNYLRHGKLVINKDLAEEGVLEEAEFYNITSLIKLVKDKIRERDSKTSQVPVKHVYRVLQCQEEELTQMVSTMSDGWKFEQLVSIGSSYNYGNEDQAEFLCVVSKELHNTPYGTASEPSEKAKILQERGSRM [KCTD5] | 0.136 | 56.7 | -0.0362 | 57.5
MAEPDYIEDDNPELIRPQKLINPVKTSRNHQDLHRELLMNQKRGLAPQNKPELQKVMEKRKRDQVIKQKEEEAQKKKSDLEIELLKRQQKLEQLELEKQKLQEEQENAPEFVKVKGNLRRTGQEVAQAQES [FAM107B] | 0.00364 | 57.3 | 0.435 | –
MAFTNYSSLNRAQLTFEYLHTNSTTHEFLFGALAELVDNARDADATRIDIYAERREDLRGGFMLCFLDDGAGMDPSDAASVIQFGKSAKRTPESTQIGQYGNGLKSGSMRIGKDFILFTKKEDTMTCLFLSRTFHEEEGIDEVIVPLPTWNARTREPVTDNVEKFAIETELIYKYSPFRTEEEVMTQFMKIPGDSGTLVIIFNLKLMDNGEPELDIISNPRDIQMAETSPEGTKPERRSFRAYAAVLYIDPRMRIFIHGHKVQTKRLSCCLYKPRMYKYTSSRFKTRAEQEVKKAEHVARIAEEKAREAESKARTLEVRLGGDLTRDSRVMLRQVQNRAITLRREADVKKRIKEAKQRALKEPKELNFVFGVNIEHRDLDGMFIYNCSRLIKMYEKVGPQLEGGMACGGVVGVVDVPYLVLEPTHNKQDFADAKEYRHLLRAMGEHLAQYWKDIAIAQRGIIKFWDEFGYLSANWNQPPSSELRYKRRRAMEIPTTIQCDLCLKWRTLPFQLSSVEKDYPDTWVCSMNPDPEQDRCEASEQKQKVPLGTFRKDMKTQEEKQKQLTEKIRQQQEKLEALQKTTPIRSQADLKKLPLEVTTRPSTEEPVRRPQRPRSPPLPAVIRNAPSRPPSLPTPRPASQPRKAPVISSTPKLPALAAREEASTSRLLQPPEAPRKPANTLVKTASRPAPLVQQLSPSLLPNSKSPREVPSPKVIKTPVVKKTESPIKLSPATPSRKRSVAVSDEEEVEEEAERRKERCKRGRFVVKEEKKDSNELSDSAGEEDSADLKRAQKDKGLHVEVRVNREWYTGRVTAVEVGKHVVRWKVKFDYVPTDTTPRDRWVEKGSEDVRLMKPPSPEHQSLDTQQEGGEEEVGPVAQQAIAVAEPSTSECLRIEPDTTALSTNHETIDLLVQILRNCLRYFLPPSFPISKKQLSAMNSDELISFPLKEYFKQYEVGLQNLCNSYQSRADSRAKASEESLRTSERKLRETEEKLQKLRTNIVALLQKVQEDIDINTDDELDAYIEDLITKGD [MORC2] | -0.0374 | 48.1 | -0.0838 | 48.6
MAGSPELVVLDPPWDKELAAGTESQALVSATPREDFRVRCTSKRAVTEMLQLCGRFVQKLGDALPEEIREPALRDAQWTFESAVQENISINGQAWQEASDNCFMDSDIKVLEDQFDEIIVDIATKRKQYPRKILECVIKTIKAKQEILKQYHPVVHPLDLKYDPDPAPHMENLKCRGETVAKEISEAMKSLPALIEQGEGFSQVLRMQPVIHLQRIHQEVFSSCHRKPDAKPENFITQIETTPTETASRKTSDMVLKRKQTKDCPQRKWYPLRPKKINLDT [NSL1] | 0.0226 | 50.2 | -0.0661 | 49.9
MAHRLQIRLLTWDVKDTLLRLRHPLGEAYATKARAHGLEVEPSALEQGFRQAYRAQSHSFPNYGLSHGLTSRQWWLDVVLQTFHLAGVQDAQAVAPIAEQLYKDFSHPCTWQVLDGAEDTLRECRTRGLRLAVISNFDRRLEGILGGLGLREHFDFVLTSEAAGWPKPDPRIFQEALRLAHMEPVVAAHVGDNYLCDYQGPRAVGMHSFLVVGPQALDPVVRDSVPKEHILPSLAHLLPALDCLEGSTPGL [HDHD3] | 0.0599 | 53.9 | 0.0289 | 54.8
MALITLRKNLYRLSDFQMHRALAALKNKPLNHVHKVVKERLCPWLCSRQPEPFGVKFHHAHCKKFHSKNGNDLHPLGGPVFSQVSDCDRLEQNVKNEESQMFYRRLSNLTSSEEVLSFISTMETLPDTMAAGALQRICEVEKKDGDQGLPKEILENSIFQALCFQFEKEPSQLSNTSLVTALQALILLHVDPQSSLLLNLVAECQNRLRKGGMEVRNLCILGESLITLHSSGCVTLELIINQLQGEKLETFTPEDIVALYRILQACTEKVDEHQTFLNKINNFSLSIVSNLSPKLISQMLTALVVLDQSQAFPLIIKLGKYVVRHVPHFTNEELRRVLEAFIYFGHHDTFFTKALEHRVAAVCLTLDPEVVCRVMEYCSRELILSKPILNAVAETFVCQTEKFSPRQISALMEPFGKLNYLPPNASALFRKLENVLFTHFNYFPPKSLLKLLHSCSLNECHPVNFLAKIFKPLFLQRLQGKESHLDTLSRAQLTQLFLASVLECPFYKGPKLLPKYQVKSFLTPCCSLETPVDSQLYRYVKIGLTNLLGARLYFAPKVLTPYCYTIDVEIKLDEEGFVLPSTANEDIHKRIALCIDGPKRFCSNSKHLLGKEAIKQRHLQLLGYQVVQIPYHEIGMLKSRRELVEYLQRKLFSQNTVHWLQE [FASTKD3] | -0.00458 | – | -0.151 | 47.8
MALLAEHLLKPLPADKQIETGPFLEAVSHLPPFFDCLGSPVFTPIKADISGNITKIKAVYDTNPAKFRTLQNILEVEKEMYGAEWPKVGATLALMWLKRGLRFIQVFLQSICDGERDENHPNLIRVNATKAYEMALKKYHGWIVQKIFQAALYAAPYKSDFLKALSKGQNVTEEECLEKIRLFLVNYTATIDVIYEMYTQMNAELNYKV [GLTP] | -0.139 | – | -0.117 | 53.3
MAMSFEWPWQYRFPPFFTLQPNVDTRQKQLAAWCSLVLSFCRLHKQSSMTVMEAQESPLFNNVKLQRKLPVESIQIVLEELRKKGNLEWLDKSKSSFLIMWRRPEEWGKLIYQWVSRSGQNNSVFTLYELTNGEDTEDEEFHGLDEATLLRALQALQQEHKAEIITVSDGRGVKFF [VPS25] | -0.0882 | 51.2 | -0.086 | 51.3
MAMVVSTWRDPQDEVPGSQGSQASQAPPVPGPPPGAPHTPQTPGQGGPASTPAQTAAGGQGGPGGPGSDKQQQQQHIECVVCGDKSSGKHYGQFTCEGCKSFFKRSVRRNLSYTCRANRNCPIDQHHRNQCQYCRLKKCLKVGMRREAVQRGRMPPTQPTHGQFALTNGDPLNCHSYLSGYISLLLRAEPYPTSRFGSQCMQPNNIMGIENICELAARMLFSAVEWARNIPFFPDLQITDQVALLRLTWSELFVLNAAQCSMPLHVAPLLAAAGLHASPMSADRVVAFMDHIRIFQEQVEKLKALHVDSAEYSCLKAIVLFTSDACGLSDVAHVESLQEKSQCALEEYVRSQYPNQPTRFGKLLLRLPSLRTVSSSVIEQLFFVRLVGKTPIETLIRDMLLSGSSFNWPYMAIQ [NR2F2] | -0.00984 | – | -0.152 | 50.3
